The text below walks through data of patent US20250074996A1 (Innovent, published 2025).

The target of test [1] is T1, CD3E on the surface of Jurkat-NFAT-Luc cells (UniProt P07766 23-207). Kind of test: cell-based or functional assay.
For test [2], the target named is T1, CD3E on the surface of Jurkat-NFAT-Luc …. Kind of test: cell-based or functional assay. This is another data set of the same source.
In the next test the target is T2, Human CD3D&E-Bio (human, UniProt P07766 23-126; P04234 22-105, biotin-labeled (site not stated)).
T2 construct: Bought heterodimer antigen; also called human CD3D&E heterodimer antigen (ACRO Biosystems); human CD3E
Kind of test: BLI (Octet Red96e), SA or AHC sensors, 1:1 fit. The protocol:
(§1) Sensors (Fortebio, Cat #18-5019) coupled to streptavidin protein (SA) or anti-human-Fc (AHC) were pre-wetted by immersion in 200 μL of SD buffer (1×PBS, 0.1% BSA, 0.05% tween-20). Exemplary antibodies and biotin-labeled or Fc-tagged BCMA and CD3D&E heterodimer antigens were diluted with SD buffer, respectively. 200 μL of SD buffer and diluted samples (100 nM) were taken and added to a 96-well black plate (Greiner, Cat #655209), respectively. The sensors and the samples were placed in Octet (Fortebio, Red96e). Data Acquisition 10.0 was executed and “New Kinetic Experiment” was selected. The sensors were arranged according to the positions of the samples, and the operation procedures and times were set as: Baseline 60 s, Loading 250 s, Baseline 100 s, Association 600 s and Dissociation 600 s. The experiment was conducted at a rotation speed of 1000 rpm and 30° C.
(§2) The results were analyzed in “Data Analysis 10.0” software, with the buffer reference channel being subtracted. 1:1 binding was selected to fit the data, and kₒₙ, koff, and KD values for the exemplary antibodies were calculated.
(§3) In experiments performed according to the above-mentioned assay, the affinities of the exemplary antibodies were detected using a human CD3D&E heterodimer antigen (ACRO Biosystems) and a monkey CD3D&E heterodimer antigen (ACRO Biosystems). The binding affinities of GPRC5D×CD3 bispecific antibodies hz5E12.1-P1/SP34.24 and hz5E12.1-P1/SP34.87 to human/monkey CD3D&E were also detected.
For orientation: Biolayer interferometry detects binding as a change in optical thickness at a sensor tip.

The target of a further test is T3, Cyno CD3D&E-Bio (monkey (cyno), UniProt Q95LI5 22-117; Q95LI8 22-105, biotin-labeled (site not stated)).
T3 construct: Bought heterodimer antigen; also called monkey CD3D&E heterodimer antigen (ACRO Biosystems); monkey CD3E
Kind of test: BLI (Octet Red96e), SA or AHC sensors, 1:1 fit. On the procedure: as §1, §2, §3

Test [3] deals with T1, CD3E on the surface of Jurkat-NFAT-Luc …. Kind of test: cell-based or functional assay. This is another data set of the same source.
Test [4] shares this target. Kind of test: cell-based or functional assay. The source holds these as a separate data set.

Broadly, the Kd is the free concentration of one partner at which half of the binding sites on the other are occupied at equilibrium, for simple one-to-one binding. Broadly, the koff is a measure of how fast the partners let go of each other. Usually kon stands for a measure of how fast the partners come together.

Where two headings read alike, the source gives them in different places.

T2 sequence (P07766 23-126 limits assumed, chain 1 of 2): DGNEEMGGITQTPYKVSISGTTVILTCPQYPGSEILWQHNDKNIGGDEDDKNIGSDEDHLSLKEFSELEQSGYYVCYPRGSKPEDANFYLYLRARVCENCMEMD
T2 sequence (P04234 22-105 limits assumed, chain 2 of 2): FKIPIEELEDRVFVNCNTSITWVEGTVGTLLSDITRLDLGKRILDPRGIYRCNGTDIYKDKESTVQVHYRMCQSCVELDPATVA
T3 sequence (Q95LI5 22-117 limits assumed, chain 1 of 2): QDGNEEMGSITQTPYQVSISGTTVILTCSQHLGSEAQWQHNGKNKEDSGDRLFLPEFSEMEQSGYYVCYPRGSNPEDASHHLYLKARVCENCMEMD
T3 sequence (Q95LI8 22-105 limits assumed, chain 2 of 2): as the sequence (P04234 22-105 limits assumed, chain 2 of 2) above, with I5V, N15K, I20V, S32T, D33N, I34N, T64A, S74N, V83L counted along it
T1 sequence (P07766 23-207): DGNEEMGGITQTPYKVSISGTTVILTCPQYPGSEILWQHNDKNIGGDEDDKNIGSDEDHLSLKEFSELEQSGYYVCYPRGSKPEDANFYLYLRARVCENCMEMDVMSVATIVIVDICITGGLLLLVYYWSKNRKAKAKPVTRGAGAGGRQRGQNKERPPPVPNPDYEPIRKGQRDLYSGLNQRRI

B1: GPRC5D×CD3 bispecific antibody (ch7F5D4/hzsp34.24) (bispecific antibody, V domains shown)
VH 1: DVQLQESGPGLVKPSQSLSLTCTVTGYSITSDYAWNWIRQFPGNKLEWMVYIDYTGRTSYNPSLKSRISLTRDTSKNQFFLQFNSVTTEDTATYYCARGNYGRYYYVMDYWGQGTSVTVSS
VL 1: DIQMTQTTSSLSASLGDRVTISCRASQDIRNYLNWYQQRPDGTIKLLIYYTSRLHSGVPSRFSGSGSGTDYSLTISNLDQEDFATYFCQQGNMLPWTFGGGTSLEIK
VH 2: EVQLVESGGGLVQPGGSLKLSCAASGFTFNTYAMNWVRQASGKGLEWVGRIRSKYNNYATYYADSVKDRFTISRDDSKSTLYLQMNSLKTEDTAVYYCARHGNFGQSYVSWFAYWGQGTTVTVSS
VL 2: QAVVTQEPSLTVSPGGTVTLTCRSSTGAVTTSNYANWVQQKPGQAPRGLIGGTNKRAPGVPARFSGSLLGDKAALTLLGAQPEDEAEYYCALWYSNLWVFGQGTKLTVL
Turning to B1, in test [1], the “EC50 of Jurkat-NFAT-Luc luciferase activation; target cells huGPRC5D-GS-CHO” value (“EC50 … target cells huGPRC5D-GS-CHO” for short) worked out at 5.66 pM, the “EC50 of Jurkat-NFAT-Luc luciferase activation; tumor cells H929” value (“EC50 … tumor cells H929” below) was determined as 7.72 pM, the “EC50 of Jurkat-NFAT-Luc luciferase activation; tumor cells L363” value (from here on “EC50 … tumor cells L363”) came to 5.62 pM and the “EC50 of Jurkat-NFAT-Luc luciferase activation; tumor cells U266” value (shortened to “EC50 … tumor cells U266”) came to 36.1 pM.

B2: GPRC5D×CD3 bispecific antibody hz5E12.1-P1/SP34.24 (bispecific antibody, V domains shown)
VH 1: QVQLVQSGAEVKKPGASVKVSCKASGYTFIGYVMHWVRQAPGQGLEWMGYINPYNDVSQHQGKFKGRVTMTSDTSTSTVYMELSSLRSEDTAVYYCAREGRLGLRVLAYWGQGTLVTVSS
VL 1: DIVMTQSPDSLAVSLGERATINCRASESVDSYGITFMNWYQQKPGQPPKLLIYAASNQGSGVPDRFSGSGSGTDFTLTISSLQAEDVAVYYCQQSKEVPWTFGQGTKLEIK
VH 2: EVQLVESGGGLVQPGGSLKLSCAASGFTFNTYAMNWVRQASGKGLEWVGRIRSKYNNYATYYADSVKDRFTISRDDSKSTLYLQMNSLKTEDTAVYYCARHGNFGQSYVSWFAYWGQGTTVTVSS
VL 2: QAVVTQEPSLTVSPGGTVTLTCRSSTGAVTTSNYANWVQQKPGQAPRGLIGGTNKRAPGVPARFSGSLLGDKAALTLLGAQPEDEAEYYCALWYSNLWVFGQGTKLTVL
Consider B2, for which, in test [2], the “EC50 of Jurkat-NFAT-Luc luciferase activation; tumor cells ARD” value worked out at 2.73 pM and the “EC50 of Jurkat-NFAT-Luc luciferase activation; tumor cells MM.1S” value is 2.25 pM. In the test with Human CD3D&E-Bio, binding was characterised by a dissociation constant (Kd) of 21.4 nM, the dissociation rate constant (koff) is 0.00335 s⁻¹ and the kon worked out at 156000 M⁻¹ s⁻¹. In addition, in the test with Cyno CD3D&E-Bio, the Kd came to 26 nM, the dissociation rate constant (koff) is 0.00319 s⁻¹ and the kon is 123000 M⁻¹ s⁻¹. In test [3], the “EC50 of Jurkat-NFAT-Luc luciferase activation; tumor cells 8226” value (“EC50 … tumor cells 8226” for short) is 3.18 pM, the “EC50 … tumor cells H929” value amounted to 6.56 pM, the “EC50 … tumor cells L363” value worked out at 5.59 pM and the “EC50 … tumor cells U266” value was 5.7 pM. In test [4], the “EC50 … tumor cells 8226” value is 3.18 pM, the “EC50 … tumor cells H929” value is 6.56 pM, the “EC50 … tumor cells L363” value was determined as 5.59 pM and the “EC50 … tumor cells U266” value amounted to 5.7 pM.

B3: BCMA×CD3 bispecific antibody (38456/hzsp34.24) (bispecific antibody, V domains shown)
VH 1: EVQLVESGGGLVQPGRSLRLSCAASGFTFGDYAIHWVRQAPGKGLEWVSGISWDSSSIAYADSVKGRFTISRDNAKNSLYLQMNSLRAEDTAVYYCAKDSPVRDSFGSIAFDIWGQGTMVTVSS
VL 1: EIVLTQSPATLSLSPGERATLSCRASQSVSSYLAWYQQKPGQAPRLLIYDASKRATGIPARFSGSGSGTDFTLTISSLEPEDFAVYYCQQASALPLTFGGGTKVEIK
VH 2: EVQLVESGGGLVQPGGSLKLSCAASGFTFNTYAMNWVRQASGKGLEWVGRIRSKYNNYATYYADSVKDRFTISRDDSKSTLYLQMNSLKTEDTAVYYCARHGNFGQSYVSWFAYWGQGTTVTVSS
VL 2: QAVVTQEPSLTVSPGGTVTLTCRSSTGAVTTSNYANWVQQKPGQAPRGLIGGTNKRAPGVPARFSGSLLGDKAALTLLGAQPEDEAEYYCALWYSNLWVFGQGTKLTVL
Consider B3, for which, in test [4], the “EC50 … tumor cells 8226” value stood at 4.82 pM, the “EC50 … tumor cells H929” value was determined as 59.6 pM, the “EC50 … tumor cells L363” value was determined as 36.6 pM and the “EC50 … tumor cells U266” value worked out at 11 pM.

B4: GPRC5D×CD3 bispecific antibody hz5E12.1-P1/SP34.87 (bispecific antibody, V domains shown)
VH 1: QVQLVQSGAEVKKPGASVKVSCKASGYTFIGYVMHWVRQAPGQGLEWMGYINPYNDVSQHQGKFKGRVTMTSDTSTSTVYMELSSLRSEDTAVYYCAREGRLGLRVLAYWGQGTLVTVSS
VL 1: DIVMTQSPDSLAVSLGERATINCRASESVDSYGITFMNWYQQKPGQPPKLLIYAASNQGSGVPDRFSGSGSGTDFTLTISSLQAEDVAVYYCQQSKEVPWTFGQGTKLEIK
VH 2: EVQLVESGGGLVQPGGSLKLSCAASGFTFNTYAMNWVRQASGKGLEWVGRIRSKYNNYATYYADSVKDRFTISRDDSKSTLYLQMNSLKTEDTAVYYCARHYNFGQSYVSWFAYWGQGTTVTVSS
VL 2: QAVVTQEPSLTVSPGGTVTLTCRSSTGAVTTSNYANWVQQKPGQAPRGLIGGTNKRAPGVPARFSGSLLGDKAALTLLGAQPEDEAEYYCALWYSNLWVFGQGTKLTVL
As for B4, in test [2], the “EC50 of Jurkat-NFAT-Luc luciferase activation; tumor cells ARD” value was 14.9 pM and the “EC50 of Jurkat-NFAT-Luc luciferase activation; tumor cells MM.1S” value came out at 18.3 pM. In the test with Human CD3D&E-Bio, this molecule had a dissociation constant Kd of 285 nM, a koff of 0.0176 s⁻¹ and an on-rate constant (kon) of 61900 M⁻¹ s⁻¹. In the test with Cyno CD3D&E-Bio, this molecule had a Kd of 290 nM, a koff of 0.0169 s⁻¹ and an association rate constant (kon) of 58300 M⁻¹ s⁻¹. Also, in test [4], the “EC50 … tumor cells 8226” value was found to be 20.1 pM, the “EC50 … tumor cells H929” value is 45.3 pM, the “EC50 … tumor cells L363” value was found to be 38.9 pM and the “EC50 … tumor cells U266” value was determined as 145 pM.

B5: TS-F6-2 (antibody, human IgG1, kappa, L234A L235A)
heavy: not shown
light: DIQMTQTTSSLSASLGDRVTISCRASQDIRNYLNWYQQRPDGTIKLLIYYTSRLHSGVPSRFSGSGSGTDYSLTISNLDQEDFATYFCQQGNMLPWTFGGGTSLEIKRTVAAPSVFIFPPSDEQLKSGTASVVCLLNNFYPREAKVQWKVDNALQSGNSQESVTEQDSKDSTYSLSSTLTLSKADYEKHKVYACEVTHQGLSSPVTKSFNRGECGGGGSGGGGSEVQLVESGGGLVQPGGSLKLSCAASGFTFNTYAMNWVRQASGKCLEWVGRIRSKYNNYATYYADSVKDRFTISRDDSKSTLYLQMNSLKTEDTAVYYCARHGNFGQSYVSWFAYWGQGTTVTVSSGGGGSGGGGSGGGGSGGGGSQAVVTQEPSLTVSPGGTVTLTCRSSTGAVTTSNYANWVQQKPGQAPRGLIGGTNKRAPGVPARFSGSLLGDKAALTLLGAQPEDEAEYYCALWYSNLWVFGCGTKLTVL
With B5, in test [1], the “EC50 … tumor cells H929” value worked out at 2200 pM and the “EC50 … tumor cells L363” value was 61.7 pM.

B6: TS-F2-3 (ch7F5D4/SP34.24/38456) (antibody, human IgG1, kappa, lambda, L234A L235A)
heavy 1: not shown
light 1: DIQMTQTTSSLSASLGDRVTISCRASQDIRNYLNWYQQRPDGTIKLLIYYTSRLHSGVPSRFSGSGSGTDYSLTISNLDQEDFATYFCQQGNMLPWTFGGGTSLEIKRTVAAPSVFIFPPSDEQLKSGTASVVCLLNNFYPREAKVQWKVDNALQSGNSQESVTEQDSKDSTYSLSSTLTLSKADYEKHKVYACEVTHQGLSSPVTKSFNRGEC
heavy 2: not shown
light 2: QAVVTQEPSLTVSPGGTVTLTCRSSTGAVTTSNYANWVQQKPGQAPRGLIGGTNKRAPGVPARFSGSLLGDKAALTLLGAQPEDEAEYYCALWYSNLWVFGQGTKLTVLGQPKAAPSVTLFPPSSEELQANKATLVCLISDFYPGAVTVAWKADSSPVKAGVETTTPSKQSNNKYAASSYLSLTPEQWKSHRSYSCQVTHEGSTVEKTVAPTECS
On to B6, for which, in test [1], the “EC50 … target cells huGPRC5D-GS-CHO” value amounted to 1.45 pM, the “EC50 … tumor cells H929” value turned out to be 5.47 pM, the “EC50 … tumor cells L363” value is 2.86 pM and the “EC50 … tumor cells U266” value stood at 47 pM.

B7: TS-F6-1 (antibody, human IgG1, kappa, L234A L235A)
heavy: not shown
light: DIQMTQTTSSLSASLGDRVTISCRASQDIRNYLNWYQQRPDGTIKLLIYYTSRLHSGVPSRFSGSGSGTDYSLTISNLDQEDFATYFCQQGNMLPWTFGGGTSLEIKRTVAAPSVFIFPPSDEQLKSGTASVVCLLNNFYPREAKVQWKVDNALQSGNSQESVTEQDSKDSTYSLSSTLTLSKADYEKHKVYACEVTHQGLSSPVTKSFNRGECGGGGSGGGGSQAVVTQEPSLTVSPGGTVTLTCRSSTGAVTTSNYANWVQQKPGQAPRGLIGGTNKRAPGVPARFSGSLLGDKAALTLLGAQPEDEAEYYCALWYSNLWVFGCGTKLTVLGGGGSGGGGSGGGGSGGGGSEVQLVESGGGLVQPGGSLKLSCAASGFTFNTYAMNWVRQASGKCLEWVGRIRSKYNNYATYYADSVKDRFTISRDDSKSTLYLQMNSLKTEDTAVYYCARHGNFGQSYVSWFAYWGQGTTVTVSS
As to B7, in test [1], the “EC50 … target cells huGPRC5D-GS-CHO” value is 9.66 pM, the “EC50 … tumor cells H929” value worked out at 3790 pM, the “EC50 … tumor cells L363” value came to 77.1 pM and the “EC50 … tumor cells U266” value stood at 366 pM.
